± gives the standard deviation of the averaged measurements.

In series [1] the test system is Saccharomyces cerevisiae. Nature of the series: protein stability index of tFT-peptide fusion (C-terminal peptide) (PSI (0-1 scale)); higher = more stable (slower turnover). As for the experimental part: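 MPS profiling in S. cerevisiae of the tFT-X12 degron library: putative degron peptides plus stable controls, 12 aa, fused to the C-terminus of a sfGFP-mCherry timer. Cells are FACS-sorted into 8 mCherry/sfGFP bins and deep-sequenced. PSI runs from 0 (unstable) to 1 (stable). Backgrounds are wild type, das1Δ and doa10Δ at 30 °C, and wild type, das1Δ, cdc34-1 and cdc53-1 at 37 °C; 2-3 technical replicates each.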

Series [2] has as its system Saccharomyces cerevisiae. The description is as above. The following applies: genetic background: wild type; temperature: 30 C.
[3] abbreviates: genetic background: cdc34-1, temperature: 37 C.
Where [4] appears, read: genetic background: cdc53-1, temperature: 37 C.
The mark [5] stands for this setting: genetic background: das1 deletion, temperature: 30 C.
Where [6] appears, read: genetic background: das1 deletion, temperature: 37 C.
[7] abbreviates: genetic background: doa10 deletion, temperature: 30 C.
Where [8] appears, read: genetic background: wild type, temperature: 30 C.
Setting [9] is: genetic background: wild type, temperature: 37 C.
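Note: PSI is a weighted mean of sequencing reads over stability bins, variants kept only with over 10 reads, mCherry proximal and sfGFP distal, peptide attached via GGGS linker.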

Take GVKSQLYSFVWF: the protein stability index in series [1] (setting [3]) is 0.6552 ± 0.0036; in series [1] (setting [4]) it was 0.74 ± 0.015; in series [1] (setting [5]) it was 0.633 ± 0.023; in series [1] (setting [6]), 0.747 ± 0.013; in series [1] (setting [7]), 0.3088 ± 0.0017; in series [1] (setting [8]) it was 0.352 ± 0.018. Also, the protein stability index stood at 0.593 ± 0.014 in series [1] (setting [9]) and 0.45 ± 0.015 in series [2].

As for GVRCRLVIRVLG, the protein stability index in series [1] (setting [3]) worked out at 0.47 ± 0.035; in series [1] (setting [4]), 0.508 ± 0.0085; in series [1] (setting [5]), 0.286 ± 0.016; in series [1] (setting [6]), 0.516 ± 0.0056; in series [1] (setting [7]), 0.16864 ± 0.00011; in series [1] (setting [8]), 0.22 ± 0.0075. Moreover, the protein stability index in series [1] (setting [9]) amounted to 0.407 ± 0.0064; in series [2], 0.316 ± 0.028.

On to GVSFLFVGVSLV, for which the protein stability index is 0.469 ± 0.065 in series [1] (setting [3]); 0.499 ± 0.01 in series [1] (setting [4]); 0.34 ± 0.031 in series [1] (setting [5]); 0.5503 ± 0.0019 in series [1] (setting [6]); 0.3088 ± 0.00076 in series [1] (setting [7]); 0.354 ± 0.015 in series [1] (setting [8]). Besides, the protein stability index in series [1] (setting [9]) is 0.523 ± 0.019; in series [2] it was 0.419 ± 0.041.

Take GVVCWVVVFGGW: the protein stability index turned out to be 0.307 ± 0.029 in series [1] (setting [3]); 0.5008 ± 0.0019 in series [1] (setting [4]); 0.281 ± 0.029 in series [1] (setting [5]); 0.512 ± 0.0065 in series [1] (setting [6]); 0.233 ± 0.0029 in series [1] (setting [7]); 0.262 ± 0.034 in series [1] (setting [8]). The protein stability index in series [1] (setting [9]) is 0.442 ± 0.058; in series [2], 0.416 ± 0.035.

Regarding GVWSLDWFLLVW, the protein stability index in series [1] (setting [3]) worked out at 0.0785 ± 0.021; in series [1] (setting [4]), 0.187 ± 0.026; in series [1] (setting [5]) it was 0.158 ± 0.016; in series [1] (setting [6]) it was 0.223 ± 0.0023; in series [1] (setting [7]) it was 0.134 ± 0.016; in series [1] (setting [8]) it was 0.15 ± 0.023. Also, the protein stability index is 0.217 ± 0.017 in series [1] (setting [9]) and 0.24 ± 0.016 in series [2].

For the sequence GWFCLFFVVSTG, the protein stability index stood at 0.213 ± 0.034 in series [1] (setting [3]); 0.3162 ± 0.0016 in series [1] (setting [4]); 0.225 ± 0.024 in series [1] (setting [5]); 0.4003 ± 0.0021 in series [1] (setting [6]); 0.203 ± 0.0087 in series [1] (setting [7]); 0.225 ± 0.031 in series [1] (setting [8]). Moreover, the protein stability index in series [1] (setting [9]) turned out to be 0.371 ± 0.012; in series [2] it was 0.342 ± 0.026.

Take GWIFFYFTWFVG: the protein stability index turned out to be 0.127 ± 0.018 in series [1] (setting [3]); 0.236 ± 0.025 in series [1] (setting [4]); 0.198 ± 0.028 in series [1] (setting [5]); 0.319 ± 0.017 in series [1] (setting [6]); 0.181 ± 0.029 in series [1] (setting [7]); 0.172 ± 0.035 in series [1] (setting [8]). The protein stability index turned out to be 0.275 ± 0.0097 in series [1] (setting [9]) and 0.263 ± 0.022 in series [2].

GWLSVLVYFLSG: the protein stability index came out at 0.471 ± 0.025 in series [1] (setting [3]); 0.545 ± 0.03 in series [1] (setting [4]); 0.387 ± 0.034 in series [1] (setting [5]); 0.5619 ± 0.0042 in series [1] (setting [6]); 0.284 ± 0.0044 in series [1] (setting [7]); 0.326 ± 0.0091 in series [1] (setting [8]). In addition, the protein stability index stood at 0.481 ± 0.022 in series [1] (setting [9]) and 0.408 ± 0.03 in series [2].

With GWVSCCVWSFLV, the protein stability index is 0.243 ± 0.028 in series [1] (setting [3]); 0.5924 ± 0.0053 in series [1] (setting [4]); 0.531 ± 0.016 in series [1] (setting [5]); 0.663 ± 0.0083 in series [1] (setting [6]); 0.066 ± 0.012 in series [1] (setting [7]); 0.066 ± 0.0087 in series [1] (setting [8]). Also, the protein stability index in series [1] (setting [9]) worked out at 0.063 ± 0.016; in series [2], 0.122 ± 0.015.

Consider HALCLSVYVSAH, for which the protein stability index in series [1] (setting [3]) came to 0.265 ± 0.0049; in series [1] (setting [4]), 0.304 ± 0.022; in series [1] (setting [5]), 0.249 ± 0.031; in series [1] (setting [6]), 0.397 ± 0.018; in series [1] (setting [7]), 0.179 ± 0.0045; in series [1] (setting [8]), 0.185 ± 0.02. Also, the protein stability index in series [1] (setting [9]) was found to be 0.323 ± 0.018; in series [2], 0.281 ± 0.024.

As to HCLLQDVPPTLH, the protein stability index in series [1] (setting [3]) was 0.641 ± 0.026; in series [1] (setting [4]), 0.6925 ± 0.0062; in series [1] (setting [5]), 0.711 ± 0.051; in series [1] (setting [6]), 0.678 ± 0.014; in series [1] (setting [7]) it was 0.703 ± 0.021; in series [1] (setting [8]), 0.702 ± 0.015. Besides, the protein stability index in series [1] (setting [9]) amounted to 0.66 ± 0.02; in series [2] it was 0.734 ± 0.031.

HCNRRNKIYWYS: the protein stability index in series [1] (setting [3]) is 0.6116 ± 0.00076; in series [1] (setting [4]) it was 0.73 ± 0.012; in series [1] (setting [5]), 0.689 ± 0.063; in series [1] (setting [6]) it was 0.739 ± 0.051; in series [1] (setting [7]) it was 0.106 ± 0.019; in series [1] (setting [8]) it was 0.111 ± 0.032. Also, the protein stability index in series [1] (setting [9]) came out at 0.189 ± 0.014; in series [2], 0.304 ± 0.051.

For HILRLVYFIVYE, the protein stability index in series [1] (setting [3]) came to 0.402 ± 0.01; in series [1] (setting [4]) it was 0.533 ± 0.028; in series [1] (setting [5]), 0.316 ± 0.044; in series [1] (setting [6]), 0.504 ± 0.0089; in series [1] (setting [7]), 0.264 ± 0.01; in series [1] (setting [8]) it was 0.293 ± 0.015. The figures for the protein stability index in series [1] (setting [9]) and in series [2] were 0.554 ± 0.017 and 0.4189 ± 0.003, respectively.

Regarding HLYCYNILLVSG, the protein stability index is 0.2001 ± 0.00066 in series [1] (setting [3]); 0.306 ± 0.04 in series [1] (setting [5]); 0.419 ± 0.007 in series [1] (setting [6]); 0.201 ± 0.018 in series [1] (setting [7]); 0.254 ± 0.015 in series [1] (setting [8]); 0.375 ± 0.038 in series [1] (setting [9]). Besides, the protein stability index in series [2] came to 0.286 ± 0.042.

As to HSPRVLLPLYFR, the protein stability index in series [1] (setting [3]) was determined as 0.199 ± 0.064; in series [1] (setting [4]), 0.133 ± 0.013; in series [1] (setting [5]) it was 0.301 ± 0.035; in series [1] (setting [6]), 0.365 ± 0.033; in series [1] (setting [7]), 0.672 ± 0.02; in series [1] (setting [8]), 0.278 ± 0.037. Besides, the protein stability index in series [1] (setting [9]) came out at 0.328 ± 0.021; in series [2], 0.378 ± 0.086.

For the sequence ICFPLQIFRILV, the protein stability index in series [1] (setting [3]) is 0.408 ± 0.013; in series [1] (setting [4]), 0.46 ± 0.019; in series [1] (setting [5]), 0.348 ± 0.021; in series [1] (setting [6]), 0.4919 ± 0.0042; in series [1] (setting [7]) it was 0.211 ± 0.014; in series [1] (setting [8]), 0.246 ± 0.019. Also, the protein stability index is 0.345 ± 0.006 in series [1] (setting [9]) and 0.3549 ± 0.0027 in series [2].

On to IEVGVAILLLGE, for which the protein stability index in series [1] (setting [3]) is 0.646 ± 0.042; in series [1] (setting [4]), 0.668 ± 0.0081; in series [1] (setting [5]) it was 0.551 ± 0.03; in series [1] (setting [6]), 0.6842 ± 0.0029; in series [1] (setting [7]), 0.5066 ± 0.0028; in series [1] (setting [8]) it was 0.529 ± 0.01. The protein stability index in series [1] (setting [9]) is 0.6791 ± 0.0027; in series [2], 0.514 ± 0.12.

(Values after the supplement of paper PMC10724198.)
